Results reported in a protein production outcome set (Wang et al. 2014).

Experiment: label from the status in PepcDB records

| Sequence | protein production |
| --- | --- |
| MTPYRRILLIMTEAQANAALSRAMALSAASGASLHVLGIHESGVLRLPHELQEAPLHSASFMHFSTELKALLDEQSFVGARPGFEAVETSNPRDQLPACIARYAPDLVIKGCPGHSLLEQIARTSLDQALLH | failed |
| MKNSFFSKFTPKEPKFFPLLKQLSDVLSASSVLLVESMEHDLPTERADYYKQIKDMEREGDRLTHLIFDELSTTFITPFDREDIHDLASCMDDVIDGINSSAKRIVIYNPRPISESGKELSRLIHEEAINIGKAMDELETFRKNPKPLRDYCTQLHDIENQADDVYELFITKLFEEEKDCIELIKIKEIMHELEKTTDAAEHVGKILKNLIVKYS | not failed |
| MKVNTWFGVLELDSNGKTLSSEVFPKDIRELALRSLSLRESRQNLPPEGFDLKTAALECGFTESLSEYYSLLHKVTLETVKLQVSQALTPDQRIIQAVEALDDINETTNSLSERLFEWYGGYFPESGLSGEELAVFISRYGSRENLPPEDPHYLKAKNSMGAKLEAADEVLLKGLAESVCSLYERRKQIEAYIESSMEILAPNLALLAGPMLGARLISIAGSLEKLAAFPSSTIQVIGASKALFKHLRSRAPSPKHGIIYSHPLINTSPWWVRGKVARALAAKLSLAARIDFYSAKRNPSLENELEEKIRKIRAENPRPPQKRQEIRAKPKKKRRKLEHHHHHH | not failed |
| MDIHIKPINTFAHAEMDALYTMIFHFYEEYDPTHVITKESINDTIIHLTNHPESGSIQFVYDAENALVGYVILIKYWSNEYQGYLLFIDELYIVPDKRSLGYGRTCITLIEKTFHDIQALALEVSPKNTRAQAFYLQLGFLPNKNKTFIKIKY | failed |
| MTLGLKDLYYAVCTEADGAESYGTPKKMAEAMSADLSVKTADGSLYADDTLSESVTEFASGTLKLGIKDLTPEVLAELLGQAVDKNSVVWAGKEDEPPYVAVGFRAKKTGGKYRYVWLLKAKFKVPSEKYETKGESIKFNTPDIEASFTTRKKDNLWKADFVGTEESAAAKTWFTAVPEKAAAMESVLEHHHHHH | not failed |
| MKRTKKAFVLVLSLSMLASISPQTVLASGGNTDRYEEVHGTQAIVKDAEVHVYTTKNGGTVQLTGSNGIETTFTQGIGYREYKATPADGWRWKGWTYEQLYQGEDLGNRTDYGWGRRYSFSNDGSDWKSPYDGIGQTISVNRLLTTGETVGNKITYNLYADFNPTINATADTGGTIEDSGITEVEYGTNKQYTVTADTGKDIASVTVDGNSVLAETKKDSFTYTFENVTEPHTIHATFTDEIHTVSYEFVSGTAGEALPEEVSNLCPSSSTYTYGTEVTPTQPTSTSVKVSDGVWTFKGYDKENQTVTSDVKFTGTWTFAKNAVTINHIPTITAGDKTITVGDSFDPKKDVTASDKEDGSLTDRIEVINNTVNTSKVGTYTVTYKVTDKDGASVTKSITVTVKEKDKEEQTTVPTKPDNGNSTSTDTKKDASKTGQTVKTGDTSNVLLWSTIAILSLAGVVTVLFIKRRKSHS | failed |
| MNLLYMVLIGQIILFLIGAMYAIGQTKKTRNNMPLPLAVRLILSFSLTASAIWIWLQDPSVDYSTWVALGMTLSTVGDLFMAGLIPIGHRLIGGMITFALAHCFYVKAFLQTGISWNGFWIGLLVYGLFLIIGWFFFIRNEKQDKLFTIGALIYGLWVGGMACFAFALYYENTGIWWIPAFGGLLFVISDFIIGVTDIGGRKLKYEPLWIWFTYVAAQMCIVYVGI | failed |
| HLHLRVKLLDNTMEIFDIEPKCDGQVLLTQVWKRLNLVECDYFGMEFQNTQSYWIWLEPMKPIIRQIRRPKNVVLRLAVK | failed |
| MNVINETANVLKLETGSVTSAKGFSAVGIHTGVKRKRKDLGAIVCEVPASSAAVYTLNKVQAAPLKVTQESIAVEGKLQAMIVNSGIANACTGKRGLDDAYTMRAVGAETFHIPEHYVAVTSTGVIGEFLPMDVITNGIRQLKPEATIEGAHAFNEAILTTDTVEKHTCYQTIVNGKTVTVGGVAKGSGMIHPNMATMLSFVTTDANIDHGHLQGALSAITNETFNRITVDGDTSTNDMVVVMASGLAENEALTPEHPDWANFYKALQLACEDLAKQIARDGEGATKLIEVEVTGAANDQEAGMVAKQIVGSDLVKTAIYGADANWGRIICAIGYSGCEVNQETIDIAIGPIVTLKQSEPTGFSEEEATAYLKEADPVKISVNLHIGNGTGKAWGCDLTYDYVRINAGYRT | not failed |
| MMRLANGIVLDKDTTFGELKFSALRREVRIQNEDGSVSDEIKERTYDLKSKGQGRMIQVSIPASVPLKEFDYNARVELINPIADTVATATYQGADVDWYIKADDIVLTKDSSSFKAQPQAKKEPTQDKLEHHHHHH | not failed |
| MSLSVPFEYTPIAQSVLDECEHLDTASLSDALDSLGIDGGLPGIASQVPGTRCVGIAFTVQYQPVDASEGFRGAANYIDQVPSGSVIVSSNSGRHDCTVWGDIMTHFALANGIKGTVIDGVARDIDTVINCNYPLFSRGRFMQSAKNRTQLKAVQVPLVIDGITIQPGDLMVCDGSGCVVVPQQLAAEVVLRARAVEQTERRIIEAISSGSTLEQARMTYRYDQPWLSEAEHGGTQEGHHHHHH | not failed |
| MGSSHHHHHHSSGRENLYFQGGAGTSAAMRQATSPKTILEYIINFFTCGGIRRRNETQYQELIETMAETLKSTMPDRGAPLPENIILDDMDGCRVEFNLPGENNEAGQVIVRVSKGDHSETREIPLASFEKICRALLFRCEFSLPQDSVILTAQGGMNLKGAVLTGANLTS | not failed |
| MKGVIMIIDGMADRPLEKLSGRTPLEAASTPNMDRIAESGINGIMDPIKPGVRAGSDTSHLSILGYDPYRVYTGRGPFEAAGVGLDVKPGDIAFRCNFATADEDMIITDRRAGRIRSGTSSIARTINSMTIEGFEDVEIIFRESTGHRAVLVLRGPGLGDKVSDADPKVEGKPPKKIKALDGSPESRKTAEVLNRIVKESYEILRDHPVNTGRIERGEAPANIILPRGAGAVPHVEKFQERYDLKAACIAETGLIKGIGHLTGMDVIDVEGATGGIDTDLESIKNAISSAIAADYDFLLINIDGADEAGHDGDLEGKVRFIERVDSILGDLMGDDIYFILTADHSTPVSVMDHTGDPVPIAITGPEVRVDDVTSFSERAAAAGGLCRIRGSDVMDILLDLMNKKEKFGALEHHHHHH | failed |
| PVTQVMTPRPVVFRVDATMTINEFLDKHKDTPFSRPLVYSEQKDNIIGFVHRLELFKMQQSGSGQKQLGAVMRPIQVVLNNTALPKVFDQMMTHRLQLALVVDEYGTVLGLVTLEDIFEHLVGE | not failed |
| MEGERMNAFPSTMMDEELNLWDFLERAAALFGRKEVVSRLHTGEVHRTTYAEVYQRARRLMGGLRALGVGVGDRVATLGFNHFRHLEAYFAVPGMGAVLHTANPRLSPKEIAYILNHAEDKVLLFDPNLLPLVEAIRGELKTVQHFVVMDEKAPEGYLAYEEALGEEADPVRVPERAACGMAYTTGTTGLPKGVVYSHRALVLHSLAASLVDGTALSEKDVVLPVVPMFHVNAWCLPYAATLVGAKQVLPGPRLDPASLVELFDGEGVTFTAGVPTVWLALADYLESTGHRLKTLRRLVVGGSAAPRSLIARFERMGVEVRQGYGLTETSPVVVQNFVKSHLESLSEEEKLTLKAKTGLPIPLVRLRVADEEGRPVPKDGKALGEVQLKGPWITGGYYGNEEATRSALTPDGFFRTGDIAVWDEEGYVEIKDRLKDLIKSGGEWISSVDLENALMGHPKVKEAAVVAIPHPKWQERPLAVVVPRGEKPTPEELNEHLLKAGFAKWQLPDAYVFAEEIPRTSAGKFLKRALREQYKNYYGGA | not failed |
| MLTLLNLLSAVTLLVWGTHIVRTGILRVFGSNLRRIISQNMDKRPLAFIAGILVTAMVQSSNATAMLVTSFVGQGLMAMTPALAIMLGADVGTALMARVLTFDLSWLSPLLIFLGVIFFLSRKQTRAGQLGRVGIGLGLIILALELIVQAAAPITQAQGVKVLFASLTGDIMLDALVGAMFAMISYSSLAAVLLTATLAGAELISLPVAIGLVVGANIGSGLLAFISTSMQNAAGRRVALGSLLYKLIGLVLIIPVLHPLVAWMDSLSFSPQELVIGFHLLYNTLRCLIMLPTVKPMGRLCNALLPEREIGNGQVRPRHLDASALETPSLALANAARETLRLGDIVDSLLEAMLGALRGTQTALPQQVRALGEDAEALYSAIKLYLAQMSREDLSEQDNRRWAEIIELSINLKLACDLIERMLRKVQQQKTSQRREFSQVGLEELTGLQEQLLANLRLGLSVFLSADPESARLLLREKRRFRAQERRLAHAHVSRLQRKVVQSIETSSLHLELIADMKRLNSLFCSSAYVVLGGSDTGGLMLDSVPDEARLP | failed |
| MSLEFFMAKADNPAFEQGQSPRMRLPDSVPLLIVGGGIMGLWAAVKAERLGIGTLLVEAGRLGGGASGGLLGALMPHMPDRWSDKKQFQFDALVALEAEIAGLEAETGLSGGYRRCGRIIPLPKPHLRGIAERHERDAAENWRSGERRFQWHVGERPSVAGWVDDAAGEAGFVFDTLAARVSPRALIALLSAFLRKARHVQVAEGCRVVSLDADAGRAALSSGEEISFGHVVVANGHESFPLIRDALGLEAGVALGQAVKGQAALLDASADPAMPVVFLNGLYIVPHEDGTVAIGSTSEDCFSEPFSTDEKLEKLLVDACTVVPSLAGAPVLERWAGLRPKAVGRDPMVGAMAGTAKLVALSGGFKVSFGLAHFLADAALETVCGHTPVIPSGFRLQEHVSIAVPDFRKFLEHHHHHH | failed |
| NTDYYGLDYALSFNQVEIEEKRIVIAGSGGIARTVIRYMLDHGAHRVDVLTRNAQNARRNLDIPGIGLHENIDEDYDIYVNCTPLGTLGDGDPFSTVDFRSGRTGIDLVYNPPDTPFLKRMRNAGGRTVSGLDVFIGQGLRTLELVFGIRPDSIFREYAVEALNEIR | failed |
| MSFCKLVSFVLILHLLNSCLISCSSNDLSQIPKNFLSLAKREDFFDWMVGIRRRIHENPELGYEEVETSKLVKTELDKMGVSYKNPVAVTGVIGYVGTGHAPFVALRADMDALPIQEMVEWEHKSKIPGKMHACGHDAHTTMLLGAAKLLKEHQEELQEGGAGAKKIVEAGVLENVGAIFGLHVSNLLGLGQLSSREGLLMAGSGRFKATISGKGGHAALPQFAIDPVLAASNVILSLQHLVSREADPLDSQVVTVATFEGSDAFNVIPDSVTIGGTFRALLPKSFEQLKQRIVQVITTQASVNMCNATVDFLEDETPPFPPTVNNKTLHLFYKNVSVDMLGIENYVETLPVMVSEDFAFYQQAIPGHFSFVGMQNKSHSPMANPHSPFFEVNEELLPYGASLLASLATRYLLDSSSSPNKDEL | failed |
| MAAVPPENGVDGDDEREEEEEDEEEEEEEEEEENGDEAEEEPRLKYQRMGGNVPALLSNDAASCIAVAARMIALGTHDGTVRILDLLGNQVKEFRAHTAPVNDINFDTEGEYIGSCSDDGSVVINSLFTDDEKMKFDYHRPMKAISLDPDYTKKQSKRFVAGGLAGHLYMNSKKWFGNKDQVLHSGEGPIHSVKWRGSLIAWANDVGVKVYDTAKDQRVTFIEKPRGSPRPEALLPHLVWQDDTLLVIGWGTSVKIASIKSDQQQTGTFRQIQMSSLTQVDIVASFQTSYYISGIAPFGDSLVILAYIPIEGDGEKEFSSTTTLSRQGNAQRPEIRIVSWNNDELTMDALPVHGFEHYKAKDYSLAHAPFPGSSYAGGQWAAGDEPLYYIVSPKDVVIAKPRDAEDHINWLLQHGFHEKALAAVEASEGRTELIDKVGAGYLDHLIVERKYAEAASLCPKLLRGSASAWERWVFHFAQLRQLPVLVPYMPTDNPRLKDTVYEVALVALATNPSYHKELLSAVKSWPRSVYSALTVISAIEPQLNTSSMTDALKEALAELYVIDGQYQKAFSLYADLLKPEVFDFIEKYSLHEAIRGKVVQLMLLDCKRATVLFIQNRDLIPPSEVVPQLLKAGKNPQVLKAGKKCDSRYYLYLYLHALFEVSHDTGKDFHDMQVELYAEYDTKMLLPFLRSSQHYKLEKAYELCVKKDFLREQVFVLGRMGNAKQALAVIINKLGDIEEAVEFVSMQHDDDLWEELIKQCLNKPEMVGLLLEHTVGNLDPLYIVNMVPNGLEIPRLRDRLVKIVTDYRTETSLRHGCNDILKTDIVNLLVKCFNEARRGVCLSHEDDDSRAKREDNNRSSFSQRMVVDKSLSIKMTEVKSKTRGDTRCCMCFDPVSIRGDTVVVFFCCHAYHETCLMDAAFSNNNHKTTKGSSGYEYSYDNGVDEEEEDEEEDEDGDGDRPGRSRLRCILCTTAAAASAR | failed |
